# From patent US20100323957A1, “NOVEL ASSAY FOR INHIBITORS OF EGFR” (THE REGENTS OF THE UNIVERSITY OF CALIFORNIA THE OFFICE OF …, priority 2007, published 2010)
# Tests used:
# [1] = biological target: T1, EGFR kinase domain V924R mutant (Homo sapiens, UniProt P00533, V948R); assay: Fluorescence anisotropy binding titration, V924R mutant kinase domain; settings: result in words
# T1 construct: DNA encoding residues 672-998 of human EGFR was cloned into pFAST BAC HT; 6-His tag, linker and TEV cleavage site (N, cleaved yes); made in house; host or cells: Sf9 insect cells (baculovirus)
# Excerpt: (§1) The wild-type and mutant forms of the EGFR kinase domain were expressed and purified using methods known in the art and described in Zhang et al., (2006). The 60-residue MIG6 peptide was expressed in bacteria as a glutathione S-transferase (GST)-fusion protein, purified and treated with the TEV protease to remove the GST-moiety. The wild-type and Y358A mutant MIG6(segments 1-2) peptides were fused to a Trp DLE leader peptide and expressed as inclusion bodies and purified as described. All other MIG6 peptides were produced using solid phase synthesis. […] The binding affinities between the kinase domain and fluorescein-labeled MIG6 peptides were measured by monitoring the change of fluorescence anisotropy during the titration and fitting the data to a single-site binding model. Kinase assays in solution and on vesicle were performed using methods known in the art and described herein. Cell-based inhibition assays were performed using Cos-7 cells co-transfected with constructs containing full-length EGFR and MIG6.
# (§2) Fluorescein-labelled 30-residue wild-type, M346L, M346A, F352A and Y358A MIG6 peptides were diluted to final concentrations of 5, 8, 3.1, 3.5 and 2.7 μM in a buffer containing 10 mM Tris, 50 mM NaCl and 2 mM DTT, pH7.5. […] The fluorescence anisotropy at each titration step was monitored. […]
# [2] = system: lung cancer; settings: patients with lung cancer; cited from earlier work
# [3] = system: biliary tract cancer; settings: in vitro; cited from earlier work
# [4] = system: cancer cells in colon cancer; settings: in vitro; cited from earlier work
# [5] = system: gastric cancer cells; settings: cited from earlier work
# [6] = biological target: T2, wild-type EGFR kinase domain (Homo sapiens, UniProt P00533); assay: Fluorescence anisotropy binding titration, wild-type kinase domain; settings: result in words
# T2 construct: DNA encoding residues 672-998 of human EGFR was cloned into pFAST BAC HT; 6-His tag, linker and TEV cleavage site (N, cleaved yes); made in house; host or cells: Sf9 insect cells (baculovirus)
# Excerpt: as §1
# Fluorescein-labelled 30-residue wild-type, M346L, M346A, F352A and Y358A MIG6 peptides were diluted to final concentrations of 5, 8, 3.1, 3.5 and 2.7 μM in a buffer containing 10 mM Tris, 50 mM NaCl and 2 mM DTT, pH7.5. These peptides in the cuvette were then titrated with the wild-type or mutant forms of the EGFR kinase domain at 20 uC. For the competition assays, the labeled 30-mer wild-type peptide ([…]) and kinase domain ([…]) were mixed and titrated with unlabelled competitor peptides. The fluorescence anisotropy at each titration step was monitored. The I682Q and K799E mutant kinases used in the binding assays contain the N-terminal 63H is tag and linker fragment before the kinase domain, whereas this N-terminal fragment in the wild-type and V924R mutant kinases was removed by Tobacco Etch Virus protease treatment.
# [7] = biological target: T3, EGFR kinase domain attached to lipid vesicles (activated EGFR kinase) (Homo sapiens, UniProt P00533); assay: Vesicle-based kinase assay: EGFR kinase domain attached to lipid vesicles; format: biochemical; settings: for inhibition of activity of kinase domain attached to lipid vesicles: result in words
# T3 construct: DNA encoding residues 672-998 of human EGFR was cloned into pFAST BAC HT; made in house; host or cells: Sf9 insect cells (baculovirus)
# Excerpt: as §1
# [8] = biological target: T4, EGFR kinase domain I682Q mutant (Homo sapiens, UniProt P00533, I706Q); assay: Kinase assay in solution, I682Q mutant kinase domain (basal activity); format: biochemical; settings: result in words
# T4 construct: DNA encoding residues 672-998 of human EGFR was cloned into pFAST BAC HT; made in house; host or cells: Sf9 insect cells (baculovirus)
# Description: The EGFR kinase domain has very low activity in solution, but is activated on increasing its local concentration by tethering it to lipid vesicles, which promotes the formation of the asymmetric dimer. […] An EGFR kinase domain bearing an I682Q mutation is not stimulated by concentration at the membrane because it is unable to form the asymmetric dimer. […] Thus, MIG6(segment 1) is only able to inhibit the kinase domain in the context of asymmetric dimer formation.
# (§3) Kinase assays were performed using methods known in the art and described herein. The substrate peptide was kept at 1 mM in all the experiments. The reported rates are the initial velocities normalized by the kinase concentrations. The wild-type kinase concentrations in the vesicle-based and solution-based assays were […] respectively.
# (§4) A continuous enzyme-coupled kinase assay was performed to measure the kinase activity of the proteins as described in Barker et al., ((1995) Biochemistry, Vol. 34(54): 14843-51), with modifications, as described herein. The ATP concentration was kept to 0.5 mM.
# (§5) The buffer used contained 10 mM MgCl2, 20 mM Tris, and pH 7.5. […] The substrate peptide was derived from the region spanning Y1173 in EGFR ([…]). All proteins used in this assay contained the N-terminal (His)6 tag unless otherwise noted.
# [9] = biological target: T5, EGFR kinase domain L834R mutant (Homo sapiens, UniProt P00533, L858R); assay: Kinase assay in solution, L834R mutant kinase domain; format: biochemical; settings: result in words
# T5 construct: DNA encoding residues 672-998 of human EGFR was cloned into pFAST BAC HT; made in house; host or cells: Sf9 insect cells (baculovirus)
# Description: To test the role of segment 2, we produced a longer peptide (residues 336-412, MIG6(segments 1-2)), and analyzed its effect on a variant of the EGFR kinase domain that contains a mutation (L834R) that renders it constitutively active in the absence of concentration on vesicles. MIG6(segments 1-2) inhibits this mutant kinase domain with an IC50 value of ˜200 nM (FIG. 25a). MIG6(segments 1-2) bearing a mutation within segment 1 (Y358A) inhibited L834R much less efficiently (IC50˜5 μM).
# as §3, §4, §5
# [10] = biological target: T4, EGFR kinase domain I682Q mutant; assay: Fluorescence anisotropy binding titration, I682Q mutant kinase domain; settings: result in words
# Excerpt: as §1, §2
compound,measurement,setting,value
"30-residue fluorescein-labelled MIG6 peptide: fluorescein-labelled MIG6 peptide, residues 334-363, spanning the entire binding epitope of segment 1",binding to EGFR kinase domain bearing V924R mutation,[1],abolishes peptide binding
C#Cc1cccc(Nc2ncnc3cc(OCCOC)c(OCCOC)cc23)c1 [Erlotinib],survival times,[2],increases survival times by several months
COc1cc2ncnc(Nc3ccc(F)c(Cl)c3)c2cc1OCCCN1CCOCC1 [gefitinib],growth of cancer cells,[3],halt the growth of cancer cells
same,growth of cancer cells,[4],halt the growth of cancer cells
same,apoptosis of gastric cancer cells,[5],increase apoptosis
"F352A: 30-residue MIG6 segment 1 peptide with F352A mutation (SPKSLPSYLNGVMPPTQSAAPDPKYVSSKA; UniProt Q9UJM3 334-363, looked up, variant F352A)",binding to the wild-type EGFR kinase domain,[6],abrogates binding
same,inhibition of activity of kinase domain attached to lipid vesicles,[7],do not inhibit kinase activity significantly
KSLPSYLNGVMPPTQSFAPDPKYVSS (chains of the parent or of the whole protein) [40-mer peptide],IC50,"[7]; vesicle-based kinase assay, read-out: IC50 for inhibiting the activated EGFR kinase (kinase domain attached to lipid vesicles)",~10 µM
"M346A: 30-residue MIG6 segment 1 peptide with M346A mutation (SPKSLPSYLNGVAPPTQSFAPDPKYVSSKA; UniProt Q9UJM3 334-363, looked up, variant M346A)",binding to the wild-type EGFR kinase domain,[6],abrogates binding
same,inhibition of activity of kinase domain attached to lipid vesicles,[7],do not inhibit kinase activity significantly
MIG6(segment 1): 25-residue epitope of MIG6 (residues 337-361) binding the EGFR kinase domain; tested as the 30-residue peptide,binding to the wild-type EGFR kinase domain,[6],micromolar affinity
same,inhibition of basal activity of I682Q mutant kinase domain in solution,[8],not inhibited
same,binding to EGFR kinase domain bearing V924R mutation,[1],does not bind
same,inhibition of L834R mutant kinase domain,[9],did not inhibit
same,binding affinity for I682Q mutant kinase domain compared with wild-type,[10],same binding affinity
"Y358A: 30-residue MIG6 segment 1 peptide with Y358A mutation (SPKSLPSYLNGVMPPTQSFAPDPKAVSSKA; UniProt Q9UJM3 334-363, looked up, variant Y358A)",binding to the wild-type EGFR kinase domain,[6],abrogates binding
same,inhibition of activity of kinase domain attached to lipid vesicles,[7],do not inhibit kinase activity significantly
